Laboratory results as given in patent KR20220001106A (dated 2022).

Target: T1, recombinant human VEGF165 (Sino biological) (human, UniProt P15692-4 27-191)
T1 construct: Sino Biological VEGF165 was used in the Octet assay
Assay: Octet red96E BLI, VEGF165 amine-coupled on AR2G sensor, antibody as analyte, 30 C

T1 sequence (P15692 other isoform, or with tags, fused parts or gaps limits assumed): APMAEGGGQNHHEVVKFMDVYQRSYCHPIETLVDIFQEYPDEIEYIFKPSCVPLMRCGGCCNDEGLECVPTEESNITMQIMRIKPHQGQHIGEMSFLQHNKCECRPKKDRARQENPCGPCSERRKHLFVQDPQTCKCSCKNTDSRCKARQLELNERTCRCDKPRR

Row | Binder | Kd [pM] | koff [s⁻¹] | kon [M⁻¹ s⁻¹]
1 | Hz2-F (antibody with SEQ ID NO 32 and SEQ ID NO 31) (antibody, human IgG1, L234A L235A, V domains shown, copies: 2 + 2) VH: EVQLVESGGGLVQPGGSLRLSCAVSGIDLNRYSLTWIRQAPGKGLEWVAIVGGSGVTYYANWAKGRFTISRDDSKNTLYLQMNSLRAEDTAVYYCARGSDRSAYAPDIWGQGTLVTVSS VL: DIQLTQSPSSLSASVGDRVTITCQSSQSIYSNNYLAWYQQKPGKAPKLLLYQASKLASGVPSRFSGSGSGTDFTLTISSLQPEDFATYYCLGVYDDDADNAFGQGTKVEIKR | 3.98 | 3.08e-06 | 775000
2 | RIgG1 (rabbit antibody made with SEQ ID NO 24 and SEQ ID NO 25) (antibody, V domains shown, Converted from scFv to whole IgG in vector pCEP6-WPRE, which carries an Fc part; The ELISA detected it with anti-hIgG-Fc; also called 2-19 (IgG form)) VH: QSVEESGGRLVTPGTPLTLTCTVSGIDLNRYSLTWVRQAPGKGLEWIGIVGGSGVTYYANWTKGRFTISKTSTTVDLKMTSLTTEDTATYFCARGSDRSAYAPDIWGPGTLVTISS VL: ELDMTQTPSSVSAAVGGTVTINCQSSQSVYSNNYLAWYQQKPGQPPKLLLYQASKLASGVSSRFSGSGSGTHFTLTISGVQCDDAATYYCLGVYDDDADNAFGGGTELEILR | 3.98 | 3.08e-06 | 775000
3 | Lu007 (SEQ ID NO 33, SEQ ID NO 34) (antibody, V domains shown, Tested as a purified whole antibody, detected with anti-hIgG-Fc; also called variant ranibizumab; variant Lucentis) VH: EVQLVESGGGLVQPGGSLRLSCAASGYDFTHYGMNWIRQAPGKGLEWVGWINTYTGEPTYAADFKRRFTFSLDTSKSTVYLQMNSLRAEDTAVYYCAKYPHYYGTSHWYFDVWGQGTLVTVSS VL: DIQLTQSPSSLSASVGDRVTITCSASQDISNYLNWYQQKPGKAPKVLIYFTSSLHSGVPSRFSGSGSGTDFTLTISSLQPEDFATYYCQQYSTVPWTFGQGTKVEIKR | 12.2 | 2.89e-06 | 237000

The remaining binders from weak to strong by Kd, led by results:

Row | Kd [pM] | koff [s⁻¹] | kon [M⁻¹ s⁻¹] | Binder
4 | 4.71 | 3.22e-06 | 685000 | Hz1 (humanized antibody made with SEQ ID NO 28 and SEQ ID NO 29) (antibody, V domains shown, Whole IgG from vector pCEP6-WPRE with an Fc part) VH: EVQLVESGGGLVKPGGSLRLSCAASGIDLNRYSLTWVRQAPGKGLEWVGIVGGSGVTYYANWAKGRFTISRDSAKNSLYLQMNSLRAEDTAVYFCARGSDRSAYAPDIWGPGTLVTVSS VL: DIQMTQSPSSLSASVGDRVTINCQSSQSIYSNNYLAWYQQKPGKPPKLLLYQASKLASGVPSRFSGSGSGTDFTLTISSLQPEDVATYYCLGVYDDDADNAFGGGTELEIKR
5 | 1.93 | 9.73e-07 | 505000 | Hz2 (humanized antibody made with SEQ ID NO 30 and SEQ ID NO 31) (antibody, V domains shown, Whole IgG from vector pCEP6-WPRE with an Fc part) VH: EVQLVESGGGLVQPGGSLRLSCAVSGIDLNRYSLTWIRQAPGKGLEWVAIVGGSGVTYYANWAKGRFTISRDDSKNTLYLQMNSLRAEDTAVYYCARGSDRSAYAPDIWGQGTLVTVSS VL: DIQLTQSPSSLSASVGDRVTITCQSSQSIYSNNYLAWYQQKPGKAPKLLLYQASKLASGVPSRFSGSGSGTDFTLTISSLQPEDFATYYCLGVYDDDADNAFGQGTKVEIKR
